Where “and” joins values, the source holds several entries; their conditions need not be identical. Equal values may be shown once. Read-outs that look alike come from different tables or passages of the source.
Assays:
Experiment in all cases: cell-based or functional assay
[1] = target: T1, Ct.Ste2, Ste2-like mating GPCR of Candida tropicalis (Candida tropicalis)
T1 chain: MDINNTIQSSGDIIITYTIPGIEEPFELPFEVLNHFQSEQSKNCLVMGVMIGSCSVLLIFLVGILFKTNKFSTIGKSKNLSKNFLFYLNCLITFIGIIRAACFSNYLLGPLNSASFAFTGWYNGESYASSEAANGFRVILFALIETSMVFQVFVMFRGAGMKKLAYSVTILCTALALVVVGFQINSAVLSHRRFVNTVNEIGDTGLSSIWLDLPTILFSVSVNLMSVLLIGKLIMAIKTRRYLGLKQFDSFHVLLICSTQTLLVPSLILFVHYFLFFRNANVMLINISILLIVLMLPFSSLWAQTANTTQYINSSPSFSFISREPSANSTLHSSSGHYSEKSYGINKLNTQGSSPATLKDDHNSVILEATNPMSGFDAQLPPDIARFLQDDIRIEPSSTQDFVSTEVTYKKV

[2] = target: T2, Kp.Ste2, Ste2-like mating GPCR of Komagataella (Pichia) pastoris (Komagataella (Pichia) pastoris)
T2 chain: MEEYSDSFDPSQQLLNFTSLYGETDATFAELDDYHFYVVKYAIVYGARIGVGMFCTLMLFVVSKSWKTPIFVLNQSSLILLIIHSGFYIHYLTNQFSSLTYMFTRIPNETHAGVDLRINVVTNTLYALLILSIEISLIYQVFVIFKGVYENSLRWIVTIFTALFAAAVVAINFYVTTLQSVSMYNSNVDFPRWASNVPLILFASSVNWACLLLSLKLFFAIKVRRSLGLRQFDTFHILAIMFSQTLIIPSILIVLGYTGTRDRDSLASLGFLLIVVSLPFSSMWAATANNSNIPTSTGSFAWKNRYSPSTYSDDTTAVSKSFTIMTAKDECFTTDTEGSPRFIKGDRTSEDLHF

[3] = target: T3, Gc.Ste2, Ste2-like mating GPCR of Geotrichum candidum (Geotrichum candidum)
T3 chain: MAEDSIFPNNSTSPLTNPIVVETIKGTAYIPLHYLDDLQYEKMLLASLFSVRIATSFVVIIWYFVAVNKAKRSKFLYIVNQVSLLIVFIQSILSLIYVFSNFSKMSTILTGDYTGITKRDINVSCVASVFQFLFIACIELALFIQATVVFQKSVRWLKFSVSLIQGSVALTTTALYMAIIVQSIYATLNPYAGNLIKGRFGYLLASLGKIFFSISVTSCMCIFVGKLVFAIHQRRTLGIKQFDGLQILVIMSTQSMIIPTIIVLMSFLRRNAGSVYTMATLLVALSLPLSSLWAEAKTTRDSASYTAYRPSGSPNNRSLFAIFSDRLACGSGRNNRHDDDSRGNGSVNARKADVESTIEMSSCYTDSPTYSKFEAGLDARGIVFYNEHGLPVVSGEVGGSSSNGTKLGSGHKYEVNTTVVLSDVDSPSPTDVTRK

[4] = target: T4, Sc.Ste2, Saccharomyces cerevisiae mating GPCR Ste2 (Saccharomyces cerevisiae, UniProt D6VTK4 1-431)
T4 sequence: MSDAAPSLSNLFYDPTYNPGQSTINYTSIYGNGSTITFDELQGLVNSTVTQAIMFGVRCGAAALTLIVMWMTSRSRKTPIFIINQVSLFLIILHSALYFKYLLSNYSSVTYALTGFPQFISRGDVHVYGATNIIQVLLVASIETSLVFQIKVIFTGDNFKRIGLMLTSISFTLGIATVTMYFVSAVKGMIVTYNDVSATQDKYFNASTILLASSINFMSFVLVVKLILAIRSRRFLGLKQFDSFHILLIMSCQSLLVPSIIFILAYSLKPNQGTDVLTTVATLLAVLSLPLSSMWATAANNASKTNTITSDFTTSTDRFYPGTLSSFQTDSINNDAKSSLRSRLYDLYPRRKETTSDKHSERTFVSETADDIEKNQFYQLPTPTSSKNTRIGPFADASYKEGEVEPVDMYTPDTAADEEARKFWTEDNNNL

[5] = target: T4, Sc.Ste2, Saccharomyces cerevisiae …; remark: listed apart in the source
[6] = target: T5, Kl.Ste2, Ste2-like mating GPCR of Kluyveromyces lactis (Kluyveromyces lactis)
T5 chain: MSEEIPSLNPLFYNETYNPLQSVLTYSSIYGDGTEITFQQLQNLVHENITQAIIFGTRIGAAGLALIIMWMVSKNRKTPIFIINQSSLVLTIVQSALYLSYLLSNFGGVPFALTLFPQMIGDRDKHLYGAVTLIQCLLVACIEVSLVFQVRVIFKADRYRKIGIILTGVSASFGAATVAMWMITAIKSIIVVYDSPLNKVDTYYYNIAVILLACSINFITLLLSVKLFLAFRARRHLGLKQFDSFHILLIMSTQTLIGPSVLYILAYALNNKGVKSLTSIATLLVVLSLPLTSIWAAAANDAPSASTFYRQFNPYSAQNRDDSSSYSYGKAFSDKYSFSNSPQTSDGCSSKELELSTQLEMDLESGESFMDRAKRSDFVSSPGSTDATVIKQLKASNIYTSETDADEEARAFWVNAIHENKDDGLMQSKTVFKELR

B1: Ct peptide ligand #1 KFKFRLTRYGWFSPN (peptide)
peptide: KFKFRLTRYGWFSPN
Bttm (FUS1p-RFP reporter) [1]: 32 fluorescence/A600 (not printed) | EC50 (FUS1p-RFP reporter) [1]: -8.2 log10 M (not printed) | Fold Change (FUS1p-RFP reporter) [1]: 5.2 fold | Span (FUS1p-RFP reporter) [1]: 135 fluorescence/A600 (not printed) | Top (FUS1p-RFP reporter) [1]: 167 fluorescence/A600 (not printed)

B2: Kp peptide ligand #1 (Table 3: …) (peptide)
peptide: FRWRNNEKNQPFG
Bttm (FUS1p-RFP reporter) [2]: 44.8 fluorescence/A600 (not printed) | EC50 (FUS1p-RFP reporter) [2]: -8.2 log10 M (not printed) | Fold Change (FUS1p-RFP reporter) [2]: 6 fold | Span (FUS1p-RFP reporter) [2]: 224 fluorescence/A600 (not printed) | Top (FUS1p-RFP reporter) [2]: 269 fluorescence/A600 (not printed)

B3: Gc peptide ligand #1 GDWGWFWYVPRPGDPAM (peptide)
peptide: GDWGWFWYVPRPGDPAM
Bttm (FUS1p-RFP reporter) [3]: 22.9 fluorescence/A600 (not printed) | EC50 (FUS1p-RFP reporter) [3]: -6.9 log10 M (not printed) | Fold Change (FUS1p-RFP reporter) [3]: 8.2 fold | Span (FUS1p-RFP reporter) [3]: 164 fluorescence/A600 (not printed) | Top (FUS1p-RFP reporter) [3]: 187 fluorescence/A600 (not printed)

B4: Sc peptide ligand #1 WHWLQLKPGQPMY (S. cerevisiae alpha-factor) (peptide)
peptide: WHWLQLKPGQPMY
Bttm (FUS1p-RFP reporter) [4]: 36.2 fluorescence/A600 (not printed) | EC50 (FUS1p-RFP reporter) [4]: -8.9 log10 M (not printed) | Fold Change (FUS1p-RFP reporter) [4]: 7 fold | Span (FUS1p-RFP reporter) [4]: 217 fluorescence/A600 (not printed) | Top (FUS1p-RFP reporter) [4]: 253 fluorescence/A600 (not printed) | EC50 (FUS1p-RFP reporter) [5]: 1.25 nM and ~1 nM

B5: Kl peptide ligand #1 WSWITLRPGQPIF (peptide)
peptide: WSWITLRPGQPIF
Bttm (FUS1p-RFP reporter) [6]: 37.2 fluorescence/A600 (not printed) | EC50 (FUS1p-RFP reporter) [6]: -7.3 log10 M (not printed) | Fold Change (FUS1p-RFP reporter) [6]: 6 fold | Span (FUS1p-RFP reporter) [6]: 186 fluorescence/A600 (not printed) | Top (FUS1p-RFP reporter) [6]: 223 fluorescence/A600 (not printed)

— US20220119825A1, “SCALABLE PEPTIDE-GPCR INT[…] SYSTEMS” (THE TRUSTEES OF COLUMBIA UNIVERSITY IN THE CITY OF NEW YORK, priority 2019, published 2022)
